The values that follow come from patent US20230212549A1 (3B PHARMACEUTICALS, published 2023).

Numbered stars: 1 amine (or outer) side, 2 acyl side, 3 side chain; on linkers, the order of the positions; unused ones are H or OH. Bridge positions count the residues as written; N and C are the ends. Square brackets hold non-standard residues; d marks the D form. Primed or numbered codes have the meaning given here. * marks the point of attachment. Ttds″ = 1,13-diamino-4,7,10-trioxatridecan-succinamic acid spacer, O=C(CCC(=O)[*:2])NCCCOCCOCCOCCCN[*:1]; TBMB(SCH2CH2NH-DOTA) = O=C(O)CN1CCN(CC(=O)O)CCN(CC(=O)NCCSCc2cc(C[*:1])cc(C[*:2])c2)CCN(CC(=O)O)CC1; DOTA = O=C(O)CN1CCN(CC(=O)O)CCN(CC(=O)*)CCN(CC(=O)O)CC1; 3Lut″ = 3,5-lutidylidene (from 3,5-lutidine); mXylylene = c1cc(C[*:1])cc(C[*:2])c1; Pentanesulfonyl = CCCCCS(=O)(=O)*; 2Lut = 2,6-lutidylidene; Hexanoyl = CCCCCC(=O)*

B1: Hex-[Cys(3MeBn)-Pro-Pro-Thr-Gln-Phe-Cys]-Asp-NH2 (peptide)
peptide: Hexanoyl-CPPTQFCD-NH2
modifications: linker 1-7 via mXylylene
SMILES: CCCCCC(=O)N[C@H]1CSCc2cccc(c2)CSC[C@@H](C(=O)N[C@@H](CC(=O)O)C(N)=O)NC(=O)[C@H](Cc2ccccc2)NC(=O)[C@H](CCC(N)=O)NC(=O)[C@H]([C@@H](C)O)NC(=O)[C@@H]2CCCN2C(=O)[C@@H]2CCCN2C1=O
B2: Hex-[Cys(tMeBn(DOTA-AET))-Pro-Pro-Thr-Gln-Phe-Cys]-Asp-NH2 (peptide)
peptide: Hexanoyl-CPPTQFCD-NH2
modifications: linker 1-7 via TBMB(SCH2CH2NH-DOTA)
SMILES: CCCCCC(=O)N[C@H]1CSCc2cc(CSCCNC(=O)CN3CCN(CC(=O)O)CCN(CC(=O)O)CCN(CC(=O)O)CC3)cc(c2)CSC[C@@H](C(=O)N[C@@H](CC(=O)O)C(N)=O)NC(=O)[C@H](Cc2ccccc2)NC(=O)[C@H](CCC(N)=O)NC(=O)[C@H]([C@@H](C)O)NC(=O)[C@@H]2CCCN2C(=O)[C@@H]2CCCN2C1=O
notes: also called 3BP-3426
B3: Pentyl-SO2-[Cys(3MeBn)-Pro-Pro-Thr-Gln-Phe-Cys]-Asp-NH2 (peptide)
peptide: Pentanesulfonyl-CPPTQFCD-NH2
modifications: linker 1-7 via mXylylene
SMILES: CCCCCS(=O)(=O)N[C@H]1CSCc2cccc(c2)CSC[C@@H](C(=O)N[C@@H](CC(=O)O)C(N)=O)NC(=O)[C@H](Cc2ccccc2)NC(=O)[C@H](CCC(N)=O)NC(=O)[C@H]([C@@H](C)O)NC(=O)[C@@H]2CCCN2C(=O)[C@@H]2CCCN2C1=O
notes: also called 3BP-3514
B4: Hex-[Cys(3MeBn)-Pro-Pro-Thr-Glu-Phe-Cys]-Asp-His-Phe-Arg-Asp-Ttds-Lys(DOTA)-NH2 (peptide)
peptide: Hexanoyl-CPPTEFCDHFRD[Ttds″]K(DOTA)-NH2
modifications: linker 1-7 via mXylylene
SMILES: CCCCCC(=O)N[C@H]1CSCc2cccc(c2)CSC[C@@H](C(=O)N[C@@H](CC(=O)O)C(=O)N[C@@H](Cc2c[nH]cn2)C(=O)N[C@@H](Cc2ccccc2)C(=O)N[C@@H](CCCNC(=N)N)C(=O)N[C@@H](CC(=O)O)C(=O)NCCCOCCOCCOCCCNC(=O)CCC(=O)N[C@@H](CCCCNC(=O)CN2CCN(CC(=O)O)CCN(CC(=O)O)CCN(CC(=O)O)CC2)C(N)=O)NC(=O)[C@H](Cc2ccccc2)NC(=O)[C@H](CCC(=O)O)NC(=O)[C@H]([C@@H](C)O)NC(=O)[C@@H]2CCCN2C(=O)[C@@H]2CCCN2C1=O

The target in the first assay is Recombinant human FAP (R&D systems, #3715-SE) (human, UniProt Q12884 26-760). Put plainly: cell-based or functional assay.
Regarding Hexanoyl-CPPTQFCD-NH2 (linker 1-7 via 2Lut, also called 3BP-3518) [Hex-[Cys(2Lut)-Pro-Pro-Thr-Gln-Phe-Cys]-Asp-NH2], the “pIC50 Category (Activity)” value was more than 8 pIC50.

As to B1, the “pIC50 Category (Activity)” value is more than 8 pIC50.

As to Hexanoyl-CPPTQFCD-NH2 (linker 1-7 via tMeBn(GaDOTA-PP); also: gallium complex of DOTA, also called 3BP-3592) [Hex-[Cys(tMeBn(GaDOTA-PP))-Pro-Pro-Thr-Gln-Phe-Cys]-Asp-NH2], the “pIC50 Category (Activity)” value is more than 8 pIC50.

As to Hexanoyl-CPPTQFCD-NH2 (linker 1-7 via tMeBn(InDOTA-PP); also: indium complex of DOTA, also called 3BP-3590) [Hex-[Cys(tMeBn(InDOTA-PP))-Pro-Pro-Thr-Gln-Phe-Cys]-Asp-NH2], the “pIC50 Category (Activity)” value was more than 8 pIC50.

As to B2, the “pIC50 Category (Activity)” value is more than 8 pIC50.

For the molecule Hexanoyl-CPPTQFCD-NH2 (linker 1-7 via 3Lut″, also called 3BP-3519) [Hex-[Cys(3Lut)-Pro-Pro-Thr-Gln-Phe-Cys]-Asp-NH2], the “pIC50 Category (Activity)” value is more than 8 pIC50.

Regarding Hexanoyl-CPPTQFCD-NH2 (linker 1-7 via tMeBn(LuDOTA-PP); also: lutetium complex of DOTA, also called 3BP-3591) [Hex-[Cys(tMeBn(LuDOTA-PP))-Pro-Pro-Thr-Gln-Phe-Cys]-Asp-NH2], the “pIC50 Category (Activity)” value is more than 8 pIC50.

As for B3, the “pIC50 Category (Activity)” value is more than 8 pIC50.

B4: the “pIC50 Category (Activity)” value is more than 8 pIC50.

A further assay has as its target T1, fibroblast activation protein (FAP) on FAP-expressing human WI-38 fibroblasts (human, UniProt Q12884 1-760).
T1 construct: also called human FAP
The assay is described as follows: competitive FACS, WI-38 cells, vs Cy5 tracer m3; A = pIC50 >8.0.
As to Hexanoyl-CPPTQFCD-NH2 (linker 1-7 via 2Lut, also called 3BP-3518) [Hex-[Cys(2Lut)-Pro-Pro-Thr-Gln-Phe-Cys]-Asp-NH2], the “pIC50 Category (FACS)” value is more than 8 pIC50.

On to B1, for which the “pIC50 Category (FACS)” value is more than 8 pIC50.

Take Hexanoyl-CPPTQFCD-NH2 (linker 1-7 via tMeBn(GaDOTA-PP); also: gallium complex of DOTA, also called 3BP-3592) [Hex-[Cys(tMeBn(GaDOTA-PP))-Pro-Pro-Thr-Gln-Phe-Cys]-Asp-NH2]: the “pIC50 Category (FACS)” value is more than 8 pIC50.

For Hexanoyl-CPPTQFCD-NH2 (linker 1-7 via tMeBn(InDOTA-PP); also: indium complex of DOTA, also called 3BP-3590) [Hex-[Cys(tMeBn(InDOTA-PP))-Pro-Pro-Thr-Gln-Phe-Cys]-Asp-NH2], the “pIC50 Category (FACS)” value was more than 8 pIC50.

Regarding B2, the “pIC50 Category (FACS)” value was more than 8 pIC50.

In the case of Hexanoyl-CPPTQFCD-NH2 (linker 1-7 via 3Lut″, also called 3BP-3519) [Hex-[Cys(3Lut)-Pro-Pro-Thr-Gln-Phe-Cys]-Asp-NH2], the “pIC50 Category (FACS)” value was more than 8 pIC50.

For the molecule Hexanoyl-CPPTQFCD-NH2 (linker 1-7 via tMeBn(LuDOTA-PP); also: lutetium complex of DOTA, also called 3BP-3591) [Hex-[Cys(tMeBn(LuDOTA-PP))-Pro-Pro-Thr-Gln-Phe-Cys]-Asp-NH2], the “pIC50 Category (FACS)” value was more than 8 pIC50.

On to B3, for which the “pIC50 Category (FACS)” value is more than 8 pIC50.

For the molecule B4, the “pIC50 Category (FACS)” value was more than 8 pIC50.
